Data set [1] can be described thus: HPLC peptide recovery before and after freeze-drying.
Procedure: The composition prepared as described in Example 4, containing 14 neoantigens and the A16L T-helper peptide, was subjected to HPLC analysis to evaluate the peptide stability before and after freeze-drying.
Experimental Conditions: • IPQC Solutions: Dilute the IPQC solutions with Methanol and then with Mobile Phase A, e.g. as follows: • 100 mg In-Process Testing Solution • +450 μL Methanol, mix • +450 μL Mobile Phase A, mix • Mix by vortexing. Samples containing lipids will be slightly hazy. Dilution factor=10×. • Lyophilisates (for Release and Stability Testing): Solubilize the lyophilisate with Ultrapure lab water. Add 3-4 glass beads and vortex vigorously for 1 minute to assure complete homogenization. Dilute the solution with Methanol and subsequently with Mobile Phase A, e.g. as follows: • 100 mg In-Process Testing Solution • +450 μL Methanol, mix • +450 μL Mobile Phase A, mix • Mix by vortexing. The sample preparations will be slightly hazy. Dilution factor=20×.
The dried preparations were solubilized in water for HPLC analysis. T=0 is the day in which the samples were removed from the freeze-dryer. T=1M and T=3M are 1 month and 3 months after T=0, respectively, with the dried preparation having been stored at −20° C.
For the next data set, the system named is C57BL/6NCrl mice. The experiment in a line: IFN-gamma ELISPOT of splenocytes eight days after single vaccination. In kind it is in vivo. The following applies: oil-based composition with 14 neoantigens, single administration, response to the named neoantigen.
[2] abbreviates: After freeze dry T = 1M, stored at −20° C.
Where [3] appears, read: After freeze dry T = 3M, stored at −20° C.

Several values for one entry are separate records, joined by “and”; a condition that tells them apart may be missing. Identical values can stand only once. Like-named read-outs stand apart in the source and are kept apart here.

For the sequence “IPSGTTILNCFHDVLSGKLSGGSPGVP (Mut29A) [Mut 29a]”, the “Amount from non-validated HPLC assay” value in data set [1] (After freeze dry T = 0) amounted to 0.38 mg/mL; in data set [1] (setting [2]) it was 0.34 mg/mL; in data set [1] (setting [3]), 0.35 mg/mL; in data set [1] (Before freeze dry), 0.54 mg/mL.
With “EFKHIKAFDRTFANNPGPMVVFATPGM (Mut44) [Mut 44]”, the “Improvement of immune response over comparative aqueous composition” value in the data set on C57BL/6NCrl mice is “about 3 fold”. The “Amount from non-validated HPLC assay” value in data set [1] (After freeze dry T = 0) amounted to 0.47 mg/mL; in data set [1] (setting [2]), 0.44 mg/mL; in data set [1] (setting [3]) it was 0.50 mg/mL; in data set [1] (Before freeze dry), 0.51 mg/mL.
Regarding “STANYNTSHLNNDVWQIFENPVDWKEK (Mut25) [Mut 25]”, the “Improvement of immune response over comparative aqueous composition” value with C57BL/6NCrl mice is “about 5 fold”. For the same sequence, the “Amount from non-validated HPLC assay” value is on record as 0.54 mg/mL in data set [1] (After freeze dry T = 0), 0.50 mg/mL in data set [1] (setting [2]), 0.56 mg/mL in data set [1] (setting [3]) and 0.56 mg/mL in data set [1] (Before freeze dry).
Regarding “NIEGIDKLTQLKKPFLVNNKINKIENI (Mut28) [Mut 28]”, the “Amount from non-validated HPLC assay” value in data set [1] (After freeze dry T = 0) was 0.50 mg/mL; in data set [1] (setting [2]) it was 0.50 mg/mL; in data set [1] (setting [3]) it was 0.51 mg/mL; in data set [1] (Before freeze dry), 0.53 mg/mL.
Turning to FRRKAFLHWYTGEAMDEMEFTEAESNM [Mut 20], the “Amount from non-validated HPLC assay” value in data set [1] was 0.41 mg/mL and 0.47 mg/mL and 0.54 mg/mL and 0.42 mg/mL.
Regarding “TAVITPPTTTTKKARVSTPKPATPSTD (Mut24) [Mut 24]”, the “Amount from non-validated HPLC assay” value is listed as 0.44 mg/mL in data set [1] (After freeze dry T = 0), 0.38 mg/mL in data set [1] (setting [2]), 0.37 mg/mL in data set [1] (setting [3]) and 0.56 mg/mL in data set [1] (Before freeze dry).
For “ECRITSNFVIPSEYWVEEKEEKQKLIQ (Mut45) [Mut 45]”, the “Amount from non-validated HPLC assay” value in data set [1] (After freeze dry T = 0) is 0.44 mg/mL; in data set [1] (setting [2]) it was 0.42 mg/mL; in data set [1] (setting [3]), 0.46 mg/mL; in data set [1] (Before freeze dry) it was 0.47 mg/mL.
As to “PKPDFSQLQRNILPSNPRVTRFHINWD (Mut22) [Mut 22]”, the “Amount from non-validated HPLC assay” value in data set [1] (After freeze dry T = 0) is recorded as 0.51 mg/mL; in data set [1] (setting [2]), 0.47 mg/mL; in data set [1] (setting [3]), 0.54 mg/mL; in data set [1] (Before freeze dry) it was 0.54 mg/mL.
For “GFSQPLRRLVLHVVSAAQAERLARAEE (Mut50) [Mut 50]”, the “Amount from non-validated HPLC assay” value in data set [1] (After freeze dry T = 0) worked out at 0.42 mg/mL; in data set [1] (setting [2]), 0.44 mg/mL; in data set [1] (setting [3]), 0.46 mg/mL; in data set [1] (Before freeze dry), 0.42 mg/mL.
Consider “VVDRNPQFLDPVLAYLMKGLCEKPLAS (Mut17) [Mut 17]”, for which the “Amount from non-validated HPLC assay” value came to 0.27 mg/mL in data set [1] (After freeze dry T = 0), 0.23 mg/mL in data set [1] (setting [2]), 0.26 mg/mL in data set [1] (setting [3]) and 0.51 mg/mL in data set [1] (Before freeze dry).
On to “PSKPSFQEFVDWENVSPELNSTDQPFL (Mut30) [Mut 30]”, for which the “Amount from non-validated HPLC assay” value is 0.51 mg/mL in data set [1] (After freeze dry T = 0), 0.51 mg/mL in data set [1] (setting [2]), 0.56 mg/mL in data set [1] (setting [3]) and 0.53 mg/mL in data set [1] (Before freeze dry).
On to “SHCHWNDLAVIPAGVVHNWDFEPRKVS (Mut48) [Mut 48]”, for which the “Amount from non-validated HPLC assay” value in data set [1] (After freeze dry T = 0) was found to be 0.38 mg/mL; in data set [1] (setting [2]) it was 0.37 mg/mL; in data set [1] (setting [3]), 0.41 mg/mL; in data set [1] (Before freeze dry), 0.47 mg/mL.
In the case of “SFACLRQPSQGPTVGVKGGAAGGGYAQ (Mut29B) [Mut 29b]”, the “Amount from non-validated HPLC assay” value in data set [1] (After freeze dry T = 0) turned out to be 0.48 mg/mL; in data set [1] (setting [2]), 0.44 mg/mL; in data set [1] (setting [3]), 0.48 mg/mL; in data set [1] (Before freeze dry), 0.56 mg/mL.
In the case of “CGTAFFINFIAIYHHASRAIPFGTMVA (Mut36) [Mut 36]”, the “Amount from non-validated HPLC assay” value in data set [1] (After freeze dry T = 0) amounted to 0.19 mg/mL; in data set [1] (setting [2]) it was 0.25 mg/mL; in data set [1] (setting [3]), 0.31 mg/mL; in data set [1] (Before freeze dry) it was 0.47 mg/mL.

For the origin of these results see US20200230057A1, “Pharmaceutical Compositions, Methods for Preparation using Lipid Vesicle Particles of Defined Size, and Uses Thereof” (IMMUNOVACCINE TECHNOLOGIES INC., priority 2017, published 2020).
